As usually defined, the stoichiometry N is a count of units in the complex or per binding partner.

Among the data in doi:10.1101/2021.09.16.459956 are stoichiometry N values, retold here.

This experiment has as its target Paracoccidioides americana (Pb03) Cbp1 (Paracoccidioides americana (Pb03)). The experiment can be described thus: crystal structure.

In turn, “Paracoccidioides americana (Pb03) Cbp1 (natural protein)” yielded a stoichiometry N of 2.
